Reference: publication PMC6363992

Legend:
[1] = molecular target: BTV1 VP5 H384-6A triple mutant, S-tagged recombinant protein (Bluetongue virus serotype 1 (BTV1)); assay: SDS-PAGE without reduction and heating, Western blot
[2] = molecular target: BTV1 VP5 H385A mutant, S-tagged recombinant protein (Bluetongue virus serotype 1 (BTV1)); assay: as above
[3] = molecular target: BTV1 VP5 anchoring domain (ANC) polypeptide, His-tagged (Bluetongue virus serotype 1 (BTV1)); assay: SDS-PAGE without reduction and heating, Coomassie staining
[4] = molecular target: BTV1 VP5, wild-type, S-tagged recombinant protein (Bluetongue virus serotype 1 (BTV1)); assay: SDS-PAGE without reduction and heating, Western blot

“BTV1 VP5 H384-6A triple mutant, S-tagged recombinant protein (natural protein)” gave a percent trimer [1] of 25% and a stoichiometry N [1] of 3.
“BTV1 VP5 H385A mutant, S-tagged recombinant protein (natural protein)” was tested, and the percent trimer [2] was 25% and the stoichiometry N [2] was 3.
“BTV1 VP5 anchoring domain (ANC) polypeptide, His-tagged (domain or fragment)” was tested, and the percent trimer [3] was 30% and the stoichiometry N [3] was 3.
In the case of “BTV1 VP5, wild-type, S-tagged recombinant protein (natural protein)”, the percent trimer [4] is reported as 25% and the stoichiometry N [4] is reported as 3.
